Values of other authors as cited in paper PMC6155283.
“And” between values parts separate entries of the source, which are not always exact repeats. Equal values may be shown once.

Target: GRα (Homo sapiens) (UniProt P04150)

In the case of GRα (from UniProt P04150), the Kd is listed as 7.4 µM and 3 µM.
